The values that follow come from PMC12375108, “A repurposed AMP binding domain reveals mitochondrial protein AMPylation as a regulator of cellular metabolism” (Nature Communications, 2025).

For data set [1], the target named is T1, AMPylated GlnA (glutamine synthetase), recombinant (E. coli, UniProt P0A9C5 1-469, AMPylated tyrosine at 398 (Tyr398-AMP)).
T1 construct: glutamine synthetase GlnA, cloned in ppSumo; Species is stated for GlnA in general (E. coli), not for the ppSumo construct; also called GlnA-AMP; copies: 12
T1 sequence: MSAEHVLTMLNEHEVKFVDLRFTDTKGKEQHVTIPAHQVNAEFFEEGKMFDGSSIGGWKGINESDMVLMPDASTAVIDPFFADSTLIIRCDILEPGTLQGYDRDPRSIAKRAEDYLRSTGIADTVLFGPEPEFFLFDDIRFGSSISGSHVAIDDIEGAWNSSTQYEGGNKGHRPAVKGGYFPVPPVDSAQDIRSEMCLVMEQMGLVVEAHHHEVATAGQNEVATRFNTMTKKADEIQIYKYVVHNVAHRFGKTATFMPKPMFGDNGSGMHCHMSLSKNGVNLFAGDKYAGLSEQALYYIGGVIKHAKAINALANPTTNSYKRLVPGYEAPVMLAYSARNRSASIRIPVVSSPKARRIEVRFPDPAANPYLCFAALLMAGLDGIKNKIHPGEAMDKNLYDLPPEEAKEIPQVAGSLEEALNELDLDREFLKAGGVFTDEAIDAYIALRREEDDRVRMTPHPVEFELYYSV
The experiment in a line: far-Western, overlay or dot blot; dot blot: 400 ng to 25 ng of AMPylated or non-AMPylated protein spotted on nitrocellulose, probed with GST or GST-hinT at 0.125 μg/mL in TBST for 1 h, detected with α-GST. The note with it: both partners purified.

For the next data set, the target named is T2, AMPylated sucA (UniProt P0AFG3 1-933, multiple AMPylation sites, residues not given).
T2 construct: sucA, model AMPylated substrate of E. coli SelO; also called sucA-AMP; SucA-AMP; source: E. coli BL21, co-expressed with SelO V242A (pETDuet), purified (Ni-NTA)
T2 sequence (looked up): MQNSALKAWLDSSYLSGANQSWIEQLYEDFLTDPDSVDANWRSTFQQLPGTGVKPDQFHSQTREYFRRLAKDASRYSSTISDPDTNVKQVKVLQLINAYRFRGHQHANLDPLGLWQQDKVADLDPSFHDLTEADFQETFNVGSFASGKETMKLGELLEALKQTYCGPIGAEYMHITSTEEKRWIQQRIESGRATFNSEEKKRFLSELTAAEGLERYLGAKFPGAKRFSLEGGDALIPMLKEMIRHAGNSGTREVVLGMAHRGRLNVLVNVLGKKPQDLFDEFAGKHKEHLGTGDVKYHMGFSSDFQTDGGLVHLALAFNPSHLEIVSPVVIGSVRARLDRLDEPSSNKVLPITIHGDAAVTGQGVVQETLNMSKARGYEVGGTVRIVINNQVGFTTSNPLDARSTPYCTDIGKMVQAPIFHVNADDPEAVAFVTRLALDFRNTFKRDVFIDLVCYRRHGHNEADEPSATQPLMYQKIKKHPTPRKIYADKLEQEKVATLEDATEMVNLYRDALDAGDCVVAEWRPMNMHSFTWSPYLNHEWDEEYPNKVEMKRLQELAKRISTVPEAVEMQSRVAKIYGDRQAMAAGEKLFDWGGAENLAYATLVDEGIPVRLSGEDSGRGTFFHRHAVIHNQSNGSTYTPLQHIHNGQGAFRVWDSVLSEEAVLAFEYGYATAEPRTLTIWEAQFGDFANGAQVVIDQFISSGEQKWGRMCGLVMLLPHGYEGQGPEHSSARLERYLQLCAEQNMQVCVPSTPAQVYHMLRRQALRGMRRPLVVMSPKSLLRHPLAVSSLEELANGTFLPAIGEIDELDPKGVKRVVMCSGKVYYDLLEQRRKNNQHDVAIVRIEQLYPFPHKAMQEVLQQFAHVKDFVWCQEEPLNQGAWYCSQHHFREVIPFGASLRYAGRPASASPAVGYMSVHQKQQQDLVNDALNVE
The data set can be described thus: BLI; GST-hinT (90 nM) immobilised on anti-GST biosensors; sucA-AMP 500 to 7.81 nM, unmodified sucA at 500 nM; 10 mM Tris pH 8, 150 mM NaCl, 0.1% Triton X-100; KD from steady-state responses, one site. The note with it: both partners purified. A general note: Biolayer interferometry detects binding as a change in optical thickness at a sensor tip.

Data set [2] concerns the molecule itself. The experiment in a line: cryo-EM structure; GlnA (4.68 mg/ml) mixed with hinT (3.29 mg/ml), 1:3 molar ratio of monomers; 10 mM Tris pH 8, 150 mM NaCl, 2 mM DTT.

B1: GST-tagged E. coli hinT H101N E96S (enzyme, UniProt P0ACE7 1-119, looked up)
chain: MAEETIFSKIIRREIPSDIVYQDDLVTAFRDISPQAPTHILIIPNILIPTVNDVSAEHEQALGRMITVAAKIAEQEGIAEDGYRLIMNTNRHGGQSVYHINMHLLGGRPLGPMLAHKGL
notes: E. coli hinT in pGEX-rTEV, E96S made by site directed mutagenesis on the H101N form; also called GST-Ec hinT^(HN, E96S); GST-Ec hinT^E96S; not shown: GST, N-terminal, kept
As usually defined, the Kd is a measure of binding affinity in units of concentration. Low values mean a tighter complex, high ones a looser complex. As for B1, in data set [1], the binding result was “binds”. Moreover, binding with AMPylated sucA was characterised by a dissociation constant (Kd) of 21 nM.

B2: E. coli hinT H101N (untagged) (enzyme, UniProt P0ACE7 1-119, looked up)
chain: MAEETIFSKIIRREIPSDIVYQDDLVTAFRDISPQAPTHILIIPNILIPTVNDVSAEHEQALGRMITVAAKIAEQEGIAEDGYRLIMNTNRHGGQEVYHINMHLLGGRPLGPMLAHKGL
notes: open reading frame cloned into pProEx; ATG replaces the endogenous TTG start codon; also called hinT^HN; source: E. coli BL21, purified (Ni-NTA, TEV cleavage, Superdex 75)
The term stoichiometry N denotes a count of units in the complex or per binding partner. B2: the “stoichiometry N” value in data set [2] is 2.
